{"source": "patent US20200181247A1", "molecular_target": "commercially-prepared stable A-beta42 Oligomers (SynAging SAS) (human)", "sequence (peptide, as listed by the source)": "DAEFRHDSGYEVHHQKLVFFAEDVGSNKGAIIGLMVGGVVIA", "assay": "SPR; antibody covalently immobilized, stable A-beta42 oligomers (1 microM) injected", "data": [{"substance": "negative control IgG1 (antibody)", "values": [{"measurement": "binding response units (BRUs), mean", "value": 2.5, "unit": "BRU"}]}]}
